Measurements published in article PMC4595200, “In vitro analyses of mitochondrial ATP/phosphate carriers from Arabidopsis thaliana revealed unexpected Ca^2+-effects” (BMC Plant Biology, 2015).

B1: AtAPC3 (Arabidopsis thaliana) (protein)
chain: MESSKPKNRNPMKKPVSITMEHVLLALRETMDEREIRIRSLFDFFDNSNLGFLDYAQIEKGLASLQIPPEYKYARDLFRVCDANRDGRVDYQEFRRYIDAKELELYRIFQAIDVEHNGCILPEELWEALVKAGIEIDDEELARFVEHVDKDNNGTITFEEWRDFLLLYPHEATLENIYHHWERVCLIDIGEQAVIPDGISKHVKRSRLLLAGGLAGAVSRTATAPLDRLKVVLQVQRAHAGVLPTIKKIWREDKLMGFFRGNGLNVMKVAPESAIKFCAYEMLKPMIGGEDGDIGTSGRLMAGGMAGALAQTAIYPMDLVKTRLQTCVSEGGKAPKLWKLTKDIWVREGPRAFYKGLFPSLLGIVPYAGIDLAAYETLKDLSRTYILQDTEPGPLIQLSCGMTSGALGASCVYPLQVVRTRMQADSSKTTMKQEFMNTMKGEGLRGFYRGLLPNLLKVVPAASITYIVYEAMKKNMALD
B2: AtAPC1 (Arabidopsis thaliana) (protein)
chain: MEAEKSKQNPGKKPVEATMEHVLVALRETKEKREIRIQKLFEFFDNSKLGFLDDTQIEKGLSSLSIPPKYRYASDFLKVCDSNRDGRVDYQEFRRYMDAKELELYKIFQAIDIEHNGDICPAELWEALDKAGIKIKDEELASFMEHVDKDNNGIITFEEWRDFLLLNPHEATIENIYHHWERVCLIDIGEQAVIPDGISAHAQRSKLLLAGGIAGAVSRTATAPLDRLKVALQVQRTNLGVVPTIKKIWREDKLLGFFRGNGLNVAKVAPESAIKFAAYEMLKPIIGGADGDIGTSGRLLAGGLAGAVAQTAIYPMDLVKTRLQTFVSEVGTPKLWKLTKDIWIQEGPRAFYRGLCPSLIGIIPYAGIDLAAYETLKDLSRAHFLHDTAEPGPLIQLGCGMTSGALGASCVYPLQVIRTRMQADSSKTSMGQEFLKTLRGEGLKGFYRGIFPNFFKVIPSASISYLVYEAMKKNLALD
B3: AtAPC2 (Arabidopsis thaliana) (protein)
chain: MEATKSSKQNCCNPVKKPGPVSIDHVLLALRETREERDLRIRSLFSFFDSENVGYLDCAQIEKGLCALQIPSGYKYAKELFRVCDANRDGRVDYHEFRRYMDDKELELYRIFQAIDVEHNGCISPEGLWDSLVKAGIEIKDEELARFVEHVDKDNDGIIMFEEWRDFLLLYPHEATIENIYHHWERVCLVDIGEQAVIPEGISKHIKRSNYFIAGGIAGAASRTATAPLDRLKVLLQIQKTDARIREAIKLIWKQGGVRGFFRGNGLNIVKVAPESAIKFYAYELFKNAIGENMGEDKADIGTTVRLFAGGMAGAVAQASIYPLDLVKTRLQTYTSQAGVAVPRLGTLTKDILVHEGPRAFYKGLFPSLLGIIPYAGIDLAAYETLKDLSRTYILQDAEPGPLVQLGCGTISGALGATCVYPLQVVRTRMQAERARTSMSGVFRRTISEEGYRALYKGLLPNLLKVVPAASITYMVYEAMKKSLELD

What was measured:
[1] = substrate: Nc1ncnc2c1ncn2[C@@H]1O[C@H](COP(=O)(O)OP(=O)(O)OP(=O)(O)O)[C@@H](O)[C@H]1O; assay: radiolabelled uptake into proteoliposomes; type: biochemical, Arabidopsis thaliana; details: ATP import / Pi export (Pi-loaded, 5 mM), no added Ca2+ or Mg2+ (traces ~9 μM each), pH 7.5, 30 °C, 2.5 min, labelled compound, apparent
[2] = substrate: Nc1ncnc2c1ncn2[C@@H]1O[C@H](COP(=O)(O)OP(=O)(O)O)[C@@H](O)[C@H]1O; assay: radiolabelled uptake into proteoliposomes; type: biochemical, Arabidopsis thaliana; details: ADP import / ATP export (ATP-loaded, 5 mM), no added Ca2+ or Mg2+, pH 7.5, 30 °C, 2.5 min, labelled compound, apparent
purified protein [3] = substrate: Nc1ncnc2c1ncn2[C@@H]1O[C@H](COP(=O)(O)OP(=O)(O)OP(=O)(O)O)[C@@H](O)[C@H]1O; assay: purified protein; details: ATP import / Pi export (Pi-loaded, 5 mM), no added Ca2+ or Mg2+ (traces ~9 μM each), pH 7.5, 30 °C, 2.5 min, labelled compound, apparent
purified protein [4] = substrate: Nc1ncnc2c1ncn2[C@@H]1O[C@H](COP(=O)(O)OP(=O)(O)O)[C@@H](O)[C@H]1O; assay: purified protein; details: ADP import / ATP export (ATP-loaded, 5 mM), no added Ca2+ or Mg2+, pH 7.5, 30 °C, 2.5 min, labelled compound, apparent

Row | Protein | Km [1] | Vmax [1] | Km [2] | Vmax [2] | Km (purified protein [3]) | Vmax (purified protein [3]) | Km (purified protein [4]) | Vmax (purified protein [4])
1 | B1 | 113 (±17) μM | 282 (±20) nmol mg protein^-1 h^-1 | 72 (±5) μM | 770 (±90) nmol mg protein^-1 h^-1 |  |  |  | 
2 | B2 |  |  |  |  | 68 (6) μM | 201(±14) nmol mg protein^-1 h^-1 | 180 (±15) μM | 2078 (±315) nmol mg protein^-1 h^-1
3 | B3 | 95 (±12) μM | 212 (±24) nmol mg protein^-1 h^-1 | 374 (±40) μM | 778 (±82) nmol mg protein^-1 h^-1 |  |  |  | 
